Key:
Test in all cases: SEC + co-IP
[1] = target: T1, Mcm2 (Saccharomyces cerevisiae, UniProt P29469 1-868)
T1 sequence: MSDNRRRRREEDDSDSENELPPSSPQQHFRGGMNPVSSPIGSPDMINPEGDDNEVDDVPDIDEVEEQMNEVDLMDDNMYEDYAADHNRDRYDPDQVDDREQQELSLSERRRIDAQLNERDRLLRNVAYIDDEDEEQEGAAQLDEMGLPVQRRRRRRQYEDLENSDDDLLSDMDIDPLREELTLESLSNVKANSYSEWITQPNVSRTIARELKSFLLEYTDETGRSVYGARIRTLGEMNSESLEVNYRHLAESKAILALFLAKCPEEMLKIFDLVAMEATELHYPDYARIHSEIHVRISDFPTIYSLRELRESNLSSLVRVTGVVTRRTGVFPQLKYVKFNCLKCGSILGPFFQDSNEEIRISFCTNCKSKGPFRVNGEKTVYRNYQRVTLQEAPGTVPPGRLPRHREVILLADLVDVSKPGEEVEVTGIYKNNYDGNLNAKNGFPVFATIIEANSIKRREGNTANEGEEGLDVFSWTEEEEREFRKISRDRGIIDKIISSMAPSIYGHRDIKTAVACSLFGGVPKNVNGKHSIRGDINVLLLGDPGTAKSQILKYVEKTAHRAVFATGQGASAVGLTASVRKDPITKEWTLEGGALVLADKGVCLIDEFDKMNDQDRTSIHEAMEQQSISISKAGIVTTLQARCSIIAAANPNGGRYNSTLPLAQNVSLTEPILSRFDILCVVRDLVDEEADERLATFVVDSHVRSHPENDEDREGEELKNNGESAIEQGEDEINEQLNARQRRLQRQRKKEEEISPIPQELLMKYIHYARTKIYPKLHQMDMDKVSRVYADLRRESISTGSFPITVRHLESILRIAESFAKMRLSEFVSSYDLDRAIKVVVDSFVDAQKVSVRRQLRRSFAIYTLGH

[2] = target: T2, Mcm4 (Saccharomyces cerevisiae, UniProt P30665 1-933)
T2 sequence: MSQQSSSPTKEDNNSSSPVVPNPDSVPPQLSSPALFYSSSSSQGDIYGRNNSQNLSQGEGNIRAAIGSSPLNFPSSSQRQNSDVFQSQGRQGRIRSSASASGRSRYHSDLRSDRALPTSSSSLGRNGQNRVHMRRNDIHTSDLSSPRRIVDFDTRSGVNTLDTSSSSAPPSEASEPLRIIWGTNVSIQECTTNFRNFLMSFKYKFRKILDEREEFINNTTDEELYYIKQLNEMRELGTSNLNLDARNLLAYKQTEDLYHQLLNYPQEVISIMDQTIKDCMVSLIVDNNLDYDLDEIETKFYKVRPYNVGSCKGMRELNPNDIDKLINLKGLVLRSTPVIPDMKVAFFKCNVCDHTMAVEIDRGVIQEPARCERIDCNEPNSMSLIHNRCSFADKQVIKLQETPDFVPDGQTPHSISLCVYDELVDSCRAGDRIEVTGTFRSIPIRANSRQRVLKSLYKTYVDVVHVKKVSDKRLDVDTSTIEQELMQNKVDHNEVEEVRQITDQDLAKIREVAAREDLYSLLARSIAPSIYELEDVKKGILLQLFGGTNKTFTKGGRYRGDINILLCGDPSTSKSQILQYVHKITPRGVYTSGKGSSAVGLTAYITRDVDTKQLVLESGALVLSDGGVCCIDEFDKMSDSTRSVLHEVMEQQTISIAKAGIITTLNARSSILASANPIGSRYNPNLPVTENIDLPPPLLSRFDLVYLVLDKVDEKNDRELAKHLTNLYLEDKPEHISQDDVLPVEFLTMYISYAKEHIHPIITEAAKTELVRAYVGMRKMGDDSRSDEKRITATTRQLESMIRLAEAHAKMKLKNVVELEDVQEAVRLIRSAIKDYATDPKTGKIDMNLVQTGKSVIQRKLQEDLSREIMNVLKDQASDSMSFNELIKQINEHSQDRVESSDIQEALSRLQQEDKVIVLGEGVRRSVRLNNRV

[3] = target: Mcm3 (Saccharomyces cerevisiae, UniProt P24279 1-971)
[4] = target: Mcm6 (Saccharomyces cerevisiae, UniProt P53091 1-1017)

Measured: binding result

Chain of Mcm3 (P24279 whole entry): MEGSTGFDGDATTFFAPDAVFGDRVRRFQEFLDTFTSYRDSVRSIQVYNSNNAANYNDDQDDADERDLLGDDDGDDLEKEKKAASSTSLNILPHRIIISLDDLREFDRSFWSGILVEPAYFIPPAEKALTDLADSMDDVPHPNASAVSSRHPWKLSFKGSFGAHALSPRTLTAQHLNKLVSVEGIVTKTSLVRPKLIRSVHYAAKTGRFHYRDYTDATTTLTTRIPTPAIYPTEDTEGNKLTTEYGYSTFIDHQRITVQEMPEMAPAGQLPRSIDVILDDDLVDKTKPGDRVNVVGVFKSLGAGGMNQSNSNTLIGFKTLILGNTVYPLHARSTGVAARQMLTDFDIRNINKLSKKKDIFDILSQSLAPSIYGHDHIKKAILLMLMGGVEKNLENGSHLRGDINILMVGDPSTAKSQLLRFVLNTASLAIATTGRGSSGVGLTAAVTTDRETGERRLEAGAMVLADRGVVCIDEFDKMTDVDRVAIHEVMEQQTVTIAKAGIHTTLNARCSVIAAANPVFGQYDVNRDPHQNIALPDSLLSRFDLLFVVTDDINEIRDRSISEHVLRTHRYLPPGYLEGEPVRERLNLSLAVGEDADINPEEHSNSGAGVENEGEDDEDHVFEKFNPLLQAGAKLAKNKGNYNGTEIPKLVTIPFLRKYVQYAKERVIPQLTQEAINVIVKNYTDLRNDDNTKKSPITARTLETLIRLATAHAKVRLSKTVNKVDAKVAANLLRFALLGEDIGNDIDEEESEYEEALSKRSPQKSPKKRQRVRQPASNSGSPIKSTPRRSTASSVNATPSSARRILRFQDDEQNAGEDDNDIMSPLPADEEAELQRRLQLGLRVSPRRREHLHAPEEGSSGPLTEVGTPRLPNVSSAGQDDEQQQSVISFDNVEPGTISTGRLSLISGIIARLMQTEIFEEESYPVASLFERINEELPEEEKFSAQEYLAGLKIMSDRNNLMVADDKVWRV
Chain of Mcm6 (P53091 whole entry): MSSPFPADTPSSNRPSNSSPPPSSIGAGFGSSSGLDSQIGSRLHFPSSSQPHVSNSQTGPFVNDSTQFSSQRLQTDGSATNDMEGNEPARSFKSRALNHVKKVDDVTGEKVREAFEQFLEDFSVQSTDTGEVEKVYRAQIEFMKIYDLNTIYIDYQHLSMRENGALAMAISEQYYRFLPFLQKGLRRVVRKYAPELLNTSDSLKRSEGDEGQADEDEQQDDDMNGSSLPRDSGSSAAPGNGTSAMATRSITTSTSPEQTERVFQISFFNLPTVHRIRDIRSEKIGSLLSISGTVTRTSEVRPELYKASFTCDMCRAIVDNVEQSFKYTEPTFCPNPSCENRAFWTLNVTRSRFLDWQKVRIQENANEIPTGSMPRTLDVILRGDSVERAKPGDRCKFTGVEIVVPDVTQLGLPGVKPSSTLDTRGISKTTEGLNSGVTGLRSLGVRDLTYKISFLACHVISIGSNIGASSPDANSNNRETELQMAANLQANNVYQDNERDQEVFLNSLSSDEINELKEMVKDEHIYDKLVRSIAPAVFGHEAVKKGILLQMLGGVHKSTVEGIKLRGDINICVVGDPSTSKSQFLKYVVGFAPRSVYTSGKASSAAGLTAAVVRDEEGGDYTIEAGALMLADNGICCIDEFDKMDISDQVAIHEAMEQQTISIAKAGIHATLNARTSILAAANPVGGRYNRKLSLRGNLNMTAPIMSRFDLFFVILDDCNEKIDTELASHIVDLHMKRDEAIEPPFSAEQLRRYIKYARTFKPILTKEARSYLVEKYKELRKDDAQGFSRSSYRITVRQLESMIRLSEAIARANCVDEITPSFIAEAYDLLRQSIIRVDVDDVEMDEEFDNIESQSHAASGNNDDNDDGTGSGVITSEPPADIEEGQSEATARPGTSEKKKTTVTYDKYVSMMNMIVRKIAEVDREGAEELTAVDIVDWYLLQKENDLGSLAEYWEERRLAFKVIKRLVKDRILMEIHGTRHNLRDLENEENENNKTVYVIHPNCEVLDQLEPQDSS

B1: Mcm7 (natural protein)
chain: MSAALPSIQLPVDYNNLFNEITDFLVTFKQDTLSSDATRNENEDENLDAENIEQHLLEKGPKYMAMLQKVANRELNSVIIDLDDILQYQNEKFLQGTQADDLVSAIQQNANHFTELFCRAIDNNMPLPTKEIDYKDDVLDVILNQRRLRNERMLSDRTNEIRSENLMDTTMDPPSSMNDALREVVEDETELFPPNLTRRYFLYFKPLSQNCARRYRKKAISSKPLSVRQIKGDFLGQLITVRGIITRVSDVKPAVEVIAYTCDQCGYEVFQEVNSRTFTPLSECTSEECSQNQTKGQLFMSTRASKFSAFQECKIQELSQQVPVGHIPRSLNIHVNGTLVRSLSPGDIVDVTGIFLPAPYTGFKALKAGLLTETYLEAQFVRQHKKKFASFSLTSDVEERVMELITSGDVYNRLAKSIAPEIYGNLDVKKALLLLLVGGVDKRVGDGMKIRGDINVCLMGDPGVAKSQLLKAICKISPRGVYTTGKGSSGVGLTAAVMKDPVTDEMILEGGALVLADNGICCIDEFDKMDESDRTAIHEVMEQQTISISKAGINTTLNARTSILAAANPLYGRYNPRLSPLDNINLPAALLSRFDILFLMLDIPSRDDDEKLAEHVTYVHMHNKQPDLDFTPVEPSKMREYIAYAKTKRPVMSEAVNDYVVQAYIRLRQDSKREMDSKFSFGQATPRTLLGIIRLSQALAKLRLADMVDIDDVEEALRLVRVSKESLYQETNKSKEDESPTTKIFTIIKKMLQETGKNTLSYENIVKTVRLRGFTMLQLSNCIQEYSYLNVWHLINEGNTLKFVDDGTMDTDQEDSLVSTPKLAPQTTASANVSAQDSDIDLQDA
binds: all assays above

Source: article PMC2952866 (Nucleic Acids Research, 2010)
